In patent publication US20250283060 (BOARD OF REGENTS, THE UNIVERSITY OF TEXAS SYSTEM, published 2025):

What was measured:
[1] = biological target: NPT7 v443 with NLS removed (synthetic construct); assay: cell_activity; ZsGreen reporter in HEK293T, 48 h, cytoplasmic; details: tags: NLS removed
NPT7 variant ES-443 (V3) = NPT7 variant ES-443 (V3) (synthetic construct); assay: cell_activity; ZsGreen reporter fluorescence in S. cerevisiae; reflects transcription and capping; details: tags: SV40 NLS N-terminal

B1: T7 promoter WT (dsDNA)
DNA 1: TAATACGACTCACTATA
DNA 2: TATAGTGAGTCGTATTA
binding signal [1]: ~1.8 fold vs WT NPT7
binding signal (NPT7 variant ES-443 (V3)): 76 fold vs K282A control
